Assay results taken from patent US20120021995A1 (published 2012).
Changes are numbered by the printed parent chain.

B1: 119p83P1G12 (designed binder)
chain: ALQTVCLKGTKVHMKCFLAFTQTKTFHEASEDCISRGGTLSTPQTGSENDALYEYLRQSVGNEAEIWLGLNGWLEGVGWVDMTGARIAYKNWGSYGPFQPDGGWPFSNENCAVLSGAANGKWFDKRCRDQLPYICQFGIV
notes: on phage
B2: 119p94P1D11 (designed binder)
chain: B1 chain with Y95T, P97E, F98K
notes: on phage
B3: 119p83P1H3 (designed binder)
chain: B1 chain with G93S, S94E, Y95D, G96R, F98G
notes: on phage
B4: 119p94P1A4 (designed binder)
chain: B1 chain with G93F, S94A, Y95E, G96F, P97F, F98L
notes: on phage
B5: 119p83P1A7′ (designed binder)
chain: B1 chain with G93Y, Y95W, G96P, P97K, F98L
notes: on phage
B6: 119p94P1D4 (designed binder)
chain: B1 chain with G93A, S94A, Y95F, G96P, P97V, F98E
notes: on phage
B7: 119p94P1G1 (designed binder)
chain: B1 chain with S94E, Y95V, G96I, P97A, F98P
notes: on phage
B8: 119p83P1D11 (designed binder)
chain: B1 chain with G93Q, S94V, Y95H, G96A, P97R, F98S
notes: on phage
B9: 119p83P1C9 (designed binder)
chain: B1 chain with S94G, Y95E, G96V, P97L, F98L
notes: on phage
B10: 119p94P1B2 (designed binder)
chain: B1 chain with G93W, S94F, Y95P, G96T, P97L, F98S
notes: on phage
B11: 119p94P1D2 (designed binder)
chain: B1 chain with G93L, S94D, Y95V, G96T, P97K, F98T
notes: on phage
B12: 119p94P1H3 (designed binder)
chain: B1 chain with G93S, S94L, Y95S, G96W, P97H, F98P
notes: on phage
B13: 119p83P1C11 (designed binder)
chain: B1 chain with G93A, S94M, Y95H, G96Y, P97Y, F98W
notes: on phage
B14: 119p83P1F12 (designed binder)
chain: B1 chain with G93F, S94I, Y95P, G96A, P97D, F98R
notes: on phage
B15: 119p83P1H7 (designed binder)
chain: B1 chain with G93V, S94N, Y95H, P97V, F98G
notes: on phage
B16: 119p83P1H8 (designed binder)
chain: B1 chain with S94G, Y95S, G96I, P97S, F98A
notes: on phage
B17: 119p83P1A9 (designed binder)
chain: B1 chain with G93V, S94Y, Y95R, G96P, P97G, F98M
notes: on phage
B18: 119p83P1A11 (designed binder)
chain: B1 chain with G93D, S94A, Y95P, G96V, P97S, F98G
notes: on phage
B19: 119p83P1D10 (designed binder)
chain: B1 chain with S94R, Y95R, G96R, P97N, F98L
notes: on phage
B20: 119p83P1H5 (designed binder)
chain: B1 chain with S94T, Y95G, G96V, P97M, F98G
notes: on phage
B21: 119p83P1A12 (designed binder)
chain: B1 chain with G93Q, S94P, Y95G, G96L, P97W, F98R
notes: on phage
B22: 119p83P1G3 (designed binder)
chain: B1 chain with G93Y, S94V, Y95R, G96S, P97E, F98G
notes: on phage
B23: 119p83P1A3 (designed binder)
chain: B1 chain with G93V, S94A, Y95K, G96D, P97H, F98E
notes: on phage
B24: 119p94P1E7 (designed binder)
chain: B1 chain with G93I, S94W, Y95S, G96R, P97I, F98E
notes: on phage
B25: 119p83P1H12 (designed binder)
chain: B1 chain with S94T, Y95H, G96I, P97S, F98S
notes: on phage
B26: 119p94P1B8 (designed binder)
chain: B1 chain with G93W, G96W, P97D, F98T
notes: on phage
B27: 119p94P1H10 (designed binder)
chain: B1 chain with G93S, S94T, Y95A, G96Q, P97N, F98G
notes: on phage
B28: 119p83P1C12 (designed binder)
chain: B1 chain with G93N, Y95N, G96V, P97V, F98L
notes: on phage
B29: 119p94P1E10 (designed binder)
chain: B1 chain with G93R, S94V, Y95P, G96S, P97L, F98R
notes: on phage
B30: 119p94P1B6 (designed binder)
chain: B1 chain with G93H, S94P, Y95Q, P97D, F98R
notes: on phage
B31: 71p88P1A1 (designed binder)
chain: EPPTQKPKKIVNAKKDVVNTKMFEELKSRLDTLAQEVALLKEQQALQTVCLKGTKVHMKCFLAFTQTKTFHEASEDCISRGGTLSTPQTGSENDALYEYLRQSVGNEAEIWLGLNGWMDGSGWVDMTGARIAYKNWETEITAQPDGGRLWRWENCAVLSGAANGKWFDKRCRDQLPYICQFGIV
B32: 71p88P1G11 (designed binder)
chain: B31 chain with D119A, S121V, R148P, L149G, W150L
B33: 71p88P1B9 (designed binder)
chain: B31 chain with M118L, D119A, R148G, L149G, R151P
B34: 71p88P1B12 (designed binder)
chain: B31 chain with M118I, D119E, S121A, R148W, L149R, W150S
B35: 71p88P1D9 (designed binder)
chain: B31 chain with M118V, D119A, S121V, R148G, L149G
B36: 71p88P1B4 (designed binder)
chain: B31 chain with M118L, D119E, S121Y, R148A, L149E, W150R, R151A
B37: 064-101.4B10 (designed binder)
chain: ALQTVCLKGTKVHMKCFLAFTQTKTFHEASEDCISRGGTLSTPQTGSENDALYEYLRQSVGNEAEIWLGLNQWVAFWSWVDMTGARIAYKNWETEITAQPDGGSAVSGENCAVLSGAANGKWFDKRCRDQLPYICQFGIV
notes: on phage
B38: 064-101.4H1 (designed binder)
chain: ALQTVCLKGTKVHMKCFLAFTQTKTFHEASEDCISRGGTLSTPQTGSENDALYEYLRQSVGNEAEIWLGLNPYTSWGLWVDMTGARIAYKNWETEITAQPDGGVGGRGENCAVLSGAANGKWFDKRCRDQLPYICQFGIV
notes: on phage

These binders were tested against T1, recombinant human TRAIL R1 (DR4)/Fc chimera (human, UniProt O00220 24-239) (assay: phage ELISA on DR4/Fc).
T1 construct: bought (R&D Systems); not shown: Fc of the bought chimera (R&D Systems)
T1 sequence: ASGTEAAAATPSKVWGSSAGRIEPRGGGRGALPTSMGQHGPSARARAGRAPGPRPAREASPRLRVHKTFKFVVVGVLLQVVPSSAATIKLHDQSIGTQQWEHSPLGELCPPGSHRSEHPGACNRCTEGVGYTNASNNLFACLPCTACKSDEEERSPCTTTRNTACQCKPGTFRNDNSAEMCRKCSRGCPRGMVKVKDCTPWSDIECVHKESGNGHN

Question: Does B1 bind?
Answer: binds

Question: Does B2 bind?
Answer: binds

Question: Does B3 bind?
Answer: binds

Question: Does B4 bind?
Answer: binds

Question: Does B5 bind?
Answer: binds

Question: Does B6 bind?
Answer: binds

Question: Does B7 bind?
Answer: binds

Question: Does B8 bind?
Answer: binds

Question: Does B9 bind?
Answer: binds

Question: Does B10 bind?
Answer: binds

Question: Does B11 bind?
Answer: binds

Question: Does B12 bind?
Answer: binds

Question: Does B13 bind?
Answer: binds

Question: Does B14 bind?
Answer: binds

Question: Does B15 bind?
Answer: binds

Question: Does B16 bind?
Answer: binds

Question: Does B17 bind?
Answer: binds

Question: Does B18 bind?
Answer: binds

Question: Does B19 bind?
Answer: binds

Question: Does B20 bind?
Answer: binds

Question: Does B21 bind?
Answer: binds

Question: Does B22 bind?
Answer: binds

Question: Does B23 bind?
Answer: binds

Question: Does B24 bind?
Answer: binds

Question: Does B25 bind?
Answer: binds

Question: Does B26 bind?
Answer: binds

Question: Does B27 bind?
Answer: binds

Question: Does B28 bind?
Answer: binds

Question: Does B29 bind?
Answer: binds

Question: Does B30 bind?
Answer: binds

Each binder was assayed against T2, DR4 (TRAIL-R1) on cancer cells (human, UniProt O00220 24-468) (assay: cell-based or functional assay).
T2 sequence: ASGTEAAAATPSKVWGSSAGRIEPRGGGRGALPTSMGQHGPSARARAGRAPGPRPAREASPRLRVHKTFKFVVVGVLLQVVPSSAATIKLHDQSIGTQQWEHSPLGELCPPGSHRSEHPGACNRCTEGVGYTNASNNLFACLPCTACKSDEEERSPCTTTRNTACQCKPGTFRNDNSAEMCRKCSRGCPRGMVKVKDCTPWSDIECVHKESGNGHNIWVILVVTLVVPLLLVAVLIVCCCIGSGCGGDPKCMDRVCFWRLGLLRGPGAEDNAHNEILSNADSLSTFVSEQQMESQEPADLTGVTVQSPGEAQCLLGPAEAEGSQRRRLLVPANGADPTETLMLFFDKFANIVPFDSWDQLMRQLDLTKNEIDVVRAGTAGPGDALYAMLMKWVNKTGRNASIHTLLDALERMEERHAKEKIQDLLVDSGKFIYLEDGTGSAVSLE

Question: How did the “Colo205 % killing (% of TRAIL activity)” value turn out when B31 was run?
Answer: -1%

Question: And the “H2122 % killing (% of TRAIL activity)” value?
Answer: -2%

Question: What about the “ST486 % killing (% of TRAIL activity)” value of the same binder?
Answer: 57%

Question: How did the “Colo205 % killing (% of TRAIL activity)” value turn out when B32 was run?
Answer: 1%

Question: What about the “H2122 % killing (% of TRAIL activity)” value of the same binder?
Answer: 4%

Question: And the “ST486 % killing (% of TRAIL activity)” value?
Answer: 45%

Question: Which results are given for B33?
Answer: Colo205 % killing (% of TRAIL activity): 7%; H2122 % killing (% of TRAIL activity): 3%; ST486 % killing (% of TRAIL activity): 34%

Question: How did the “Colo205 % killing (% of TRAIL activity)” value turn out when B34 was run?
Answer: -10%

Question: And the “H2122 % killing (% of TRAIL activity)” value?
Answer: -1%

Question: What about the “ST486 % killing (% of TRAIL activity)” value of the same binder?
Answer: 26%

Question: Which results are given for B35?
Answer: Colo205 % killing (% of TRAIL activity): -21%; H2122 % killing (% of TRAIL activity): -3%; ST486 % killing (% of TRAIL activity): 28%

Question: For B36, which “Colo205 % killing (% of TRAIL activity)” value is on record?
Answer: -25%

Question: And the “H2122 % killing (% of TRAIL activity)” value?
Answer: -5%

Question: And the “ST486 % killing (% of TRAIL activity)” value?
Answer: -15%

Biological target: T1, recombinant human TRAIL R1 (DR4)/Fc …
Assay: phage ELISA on DR4/Fc
Remark: another data set of the same source
Description: The remaining overnight culture was used to make a master stock plate by adding 100 μL of 50% glycerol to each well and storing at −80° C. The replica culture plate was grown at 37° C. with shaking at 250 rpm for approximately 2 hrs until the OD₆₀₀ was 0.5-0.7. The wells were then infected with K07 helper phage to 5×10⁹ pfu/mL mixed and incubated at 37° C. for 30 minutes without shaking, then incubated an addition 30 minutes at 37° C. with shaking at 250 rpm. The cultures were then spun down at 2500 rpm and 4° C. for 20 minutes. The supernatants were removed from the wells and the bacterial cell pellets were re-suspended in 500 μL of 2xYT containing 50 μg/mL carbenicillin and 50 μg/mL kanamycin. An air-permeable membrane was placed on the culture block and cells were grown overnight at room temperature with shaking at 250 rpm.
On day 3, cultures were spun down and supernatants containing the phage were blocked with 3% milk/PBS for 1 hr at room temperature. An initial Phage ELISA was performed using 75-100 ng of antigen bound per well. Non-specific binding was measured using 75-100 ng of human IgG1 Fc per well. DR4/Fc antigen (R&D Systems)-coated wells and IgG Fc coated wells were prepared fresh the night before by binding the above amount of antigen diluted in 100 μL of PBS per well. Antigen plates were incubated overnight at 4° C. then for 1 hour at 37° C., washed twice with PBS/0.05% Tween 20 and twice with PBS, and then blocked with 3% milk/PBS for 1 hr at 37° C. prior to the ELISA. Blocked phage were bound to blocked antigen-bound plates for 1 hr then washed twice with 0.05% Tween 20/PBS and then twice more with PBS. A HRP-conjugated anti-M13 secondary antibody diluted in 3% milk/PBS was then applied, with binding for 1 hr and washing as described above. The ELISA signal was developed using 90 μL TMB substrate mix and then stopped with 90 μL 0.2 M sulfuric acid, then ELISA plates were read at 450 nm. […] Secondary ELISA screens were performed similarly to the protocol detailed above.

Question: Does B37 bind?
Answer: binds

Question: Does B38 bind?
Answer: binds
